From patent US11795460B2, “Compositions and methods for TTR gene editing and treating ATTR amyloidosis” (Intellia Therapeutics, Inc., priority 2017, dated 2023)
Strand notation (5' to 3'): a small letter for the sugar, then the base; units joined by * are phosphorothioate-linked, units joined directly phosphodiester-linked; [ ] holds rarer units or linkages, { } end groups; capitals alone tell only the bases. m = 2'-O-methyl; r = 2'-OH (RNA)

How the values were obtained:
TTR = TTR editing in primary human hepatocytes electroporated with Spy Cas9 protein loaded with dgRNAs (Table 7); assay type: cell-based; settings: dgRNA electroporated with Spy Cas9 protein (RNP)
Procedure, shortened: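 Editing efficiency is the fraction of NGS reads carrying insertions, deletions or substitutions at the TTR target, measured on MiSeq amplicons from DNA harvested 24, 48 or 72 h post-delivery. Cas9–dgRNA ribonucleoprotein was nucleofected (P3 buffer, EX-147) into primary human or cyno hepatocytes.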

off-target genomic sites = test: Off-target oligo insertion based assay in HEK293_Cas9 cells, dgRNAs and sgRNAs (Tables 23, 24); assay type: cell-based, human; settings: for # Sites (off-target integration sites detected): Table 24, TTR sgRNAs in HekCas9 cells, insertion detection method; for # Sites in HekCas9 cells (Example 5): Table 30, TTR sgRNAs, repeated from Example 5 for comparison
Procedure: An oligo insertion based assay (See, e.g., Tsai et al., Nature Biotechnology 33, 187-197; 2015) was used to determine potential off-target genomic sites cleaved by Cas9 targeting TTR. Forty-five dgRNAs from Table 1 (and two control guides with known off-target profiles) were screened in the HEK293 Cas9 cells. The human embryonic kidney adenocarcinoma cell line HEK293 constitutively expressing Spy Cas9 (“HEK293_Cas9”) was cultured in DMEM media supplemented with 10% fetal bovine serum and 500 μg/ml G418. Cells were plated at a density of 30,000 cells/well in a 96-well plate 24 hours prior to transfection. Cells were transfected with Lipofectamine RNAiMAX (ThermoFisher, Cat. 13778150) per the manufacturer's protocol. Cells were transfected with a lipoplex containing individual crRNA (15 nM), trRNA (15 nM), and donor oligo with (10 nM) Lipofectamine RNAiMAX (0.3 μL/well) and OptiMem. Cells were lysed 24 hours post transfection and genomic DNA was extracting using Zymo's Quick gDNA 96 Extraction kit (catalog #D3012) following the manufacturer's recommended protocol. The gDNA was quantified using the Qubit High Sensitivity dsDNA kit (Life Technologies). Libraries were prepared per the previously described method in Tsai et al, 2015 with minor modifications. Sequencing was performed on Illumina's MiSeq and HiSeq 2500. The assay identified potential off-target sites for some of the crRNAs which are plotted in FIG. 2.
Additionally, a subset of the guides was assessed for off-target potential as modified sgRNAs in the Hek_Cas9 cells via the oligo based insertion method described above. The off-target results were plotted in FIG. 4.

Row | Molecule | Avg % Deletion (TTR) [%] | Avg % Edit (TTR) [%] | Avg % Insert (TTR) [%] | # Sites (off-target integration sites detected) (off-target genomic sites) | # Sites in HekCas9 cells (Example 5) (off-target genomic sites)
1 | AAUAGGAGUAGGGGCUCAGC (tested as dual guide RNA, chemistry not given here) [CR003384] | 0.23 | 1.87 | 1.73 | – | –
2 | ACCUCUGCAUGCUCAUGGAA (tested as dual guide RNA, chemistry not given here) [CR003371] | 1.87 | 16.20 | 14.47 | – | –
3 | AUGCAGCUCUCCAGACUCAC (tested as dual guide RNA, chemistry not given here) [CR003358] | 0.80 | 5.70 | 4.93 | – | –
4 | CCUCUGCAUGCUCAUGGAAU (tested as dual guide RNA, chemistry not given here) [CR003370] | 0.90 | 15.27 | 14.43 | – | –
5 | CUGAGGAGGAAUUUGUAGAA (tested as dual guide RNA, chemistry not given here) [CR003364] | 6.53 | 23.30 | 16.93 | – | –
6 | CUGGUAUUUGUGUCUGAGGC (tested as dual guide RNA, chemistry not given here) [CR003341] | 4.40 | 11.43 | 7.03 | – | –
7 | GCAUGGGCUCACAACUGAGG (tested as dual guide RNA, chemistry not given here) [CR003362] | 0.20 | 7.03 | 6.87 | – | –
8 | GCUGCAUGGGCUCACAACUG (tested as dual guide RNA, chemistry not given here) [CR003361] | 0.37 | 4.10 | 3.73 | – | –
9 | UACUCACCUCUGCAUGCUCA (tested as dual guide RNA, chemistry not given here) [CR003372] | 1.77 | 12.17 | 10.47 | – | –
10 | G000494: TTR sgRNA modified sequence, Human, SEQ ID No. 101; guide sequence of CR003360 (nucleic acid) guide: mG*mU*mG*rArGrUrCrUrGrGrArGrArGrCrUrGrCrArUrGrUrUrUrUrArGrAmGmCmUmAmGmAmAmAmUmAmGmCrArArGrUrUrArArArArUrArArGrGrCrUrArGrUrCrCrGrUrUrArUrCrAmAmCmUmUmGmAmAmAmAmAmGmUmGmGmCmAmCmCmGmAmGmUmCmGmGmUmGmCmU*mU*mU*mU | – | – | – | 4 | 4
11 | G000499: TTR sgRNA modified sequence, Human, SEQ ID No. 106; guide sequence of CR005303 (nucleic acid) guide: mU*mG*mA*rArUrCrCrArArGrUrGrUrCrCrUrCrUrGrArGrUrUrUrUrArGrAmGmCmUmAmGmAmAmAmUmAmGmCrArArGrUrUrArArArArUrArArGrGrCrUrArGrUrCrCrGrUrUrArUrCrAmAmCmUmUmGmAmAmAmAmAmGmUmGmGmCmAmCmCmGmAmGmUmCmGmGmUmGmCmU*mU*mU*mU | – | – | – | 4 | 4
12 | G000480: TTR sgRNA modified sequence, Human, SEQ ID No. 87; guide sequence of CR003353 (nucleic acid) guide: mA*mA*mA*rGrGrCrUrGrCrUrGrArUrGrArCrArCrCrUrGrUrUrUrUrArGrAmGmCmUmAmGmAmAmAmUmAmGmCrArArGrUrUrArArArArUrArArGrGrCrUrArGrUrCrCrGrUrUrArUrCrAmAmCmUmUmGmAmAmAmAmAmGmUmGmGmCmAmCmCmGmAmGmUmCmGmGmUmGmCmU*mU*mU*mU | – | – | – | 11 | 11
13 | G000488: TTR sgRNA modified sequence, Human, SEQ ID No. 95; guide sequence of CR003346 (nucleic acid) guide: mA*mA*mA*rGrUrUrCrUrArGrArUrGrCrUrGrUrCrCrGrGrUrUrUrUrArGrAmGmCmUmAmGmAmAmAmUmAmGmCrArArGrUrUrArArArArUrArArGrGrCrUrArGrUrCrCrGrUrUrArUrCrAmAmCmUmUmGmAmAmAmAmAmGmUmGmGmCmAmCmCmGmAmGmUmCmGmGmUmGmCmU*mU*mU*mU | – | – | – | 0 | 0
14 | G000489: TTR sgRNA modified sequence, Human, SEQ ID No. 96; guide sequence of CR003344 (nucleic acid) guide: mU*mU*mU*rGrArCrCrArUrCrArGrArGrGrArCrArCrUrGrUrUrUrUrArGrAmGmCmUmAmGmAmAmAmUmAmGmCrArArGrUrUrArArArArUrArArGrGrCrUrArGrUrCrCrGrUrUrArUrCrAmAmCmUmUmGmAmAmAmAmAmGmUmGmGmCmAmCmCmGmAmGmUmCmGmGmUmGmCmU*mU*mU*mU | – | – | – | 19 | 19
15 | G000481: TTR sgRNA modified sequence, Human, SEQ ID No. 88; guide sequence of CR003345 (nucleic acid) guide: mU*mC*mU*rArGrArArCrUrUrUrGrArCrCrArUrCrArGrGrUrUrUrUrArGrAmGmCmUmAmGmAmAmAmUmAmGmCrArArGrUrUrArArArArUrArArGrGrCrUrArGrUrCrCrGrUrUrArUrCrAmAmCmUmUmGmAmAmAmAmAmGmUmGmGmCmAmCmCmGmAmGmUmCmGmGmUmGmCmU*mU*mU*mU | – | – | – | 3 | 3
16 | G000482: TTR sgRNA modified sequence, Human, SEQ ID No. 89; guide sequence of CR003365 (nucleic acid) guide: mU*mG*mU*rArGrArArGrGrGrArUrArUrArCrArArArGrGrUrUrUrUrArGrAmGmCmUmAmGmAmAmAmUmAmGmCrArArGrUrUrArArArArUrArArGrGrCrUrArGrUrCrCrGrUrUrArUrCrAmAmCmUmUmGmAmAmAmAmAmGmUmGmGmCmAmCmCmGmAmGmUmCmGmGmUmGmCmU*mU*mU*mU | – | – | – | 13 | 13
17 | G000486: TTR sgRNA modified sequence, Human, SEQ ID No. 93; guide sequence of CR003339 (nucleic acid) guide: mA*mC*mA*rCrArArArUrArCrCrArGrUrCrCrArGrCrArGrUrUrUrUrArGrAmGmCmUmAmGmAmAmAmUmAmGmCrArArGrUrUrArArArArUrArArGrGrCrUrArGrUrCrCrGrUrUrArUrCrAmAmCmUmUmGmAmAmAmAmAmGmUmGmGmCmAmCmCmGmAmGmUmCmGmGmUmGmCmU*mU*mU*mU | – | – | – | 12 | 12
18 | G000483: TTR sgRNA modified sequence, Human, SEQ ID No. 90; guide sequence of CR005298 (nucleic acid) guide: mU*mC*mC*rArCrUrCrArUrUrCrUrUrGrGrCrArGrGrArGrUrUrUrUrArGrAmGmCmUmAmGmAmAmAmUmAmGmCrArArGrUrUrArArArArUrArArGrGrCrUrArGrUrCrCrGrUrUrArUrCrAmAmCmUmUmGmAmAmAmAmAmGmUmGmGmCmAmCmCmGmAmGmUmCmGmGmUmGmCmU*mU*mU*mU | – | – | – | 5 | 5
19 | G000484: TTR sgRNA modified sequence, Human, SEQ ID No. 91; guide sequence of CR003367 (nucleic acid) guide: mA*mG*mA*rCrArCrCrArArArUrCrUrUrArCrUrGrGrArGrUrUrUrUrArGrAmGmCmUmAmGmAmAmAmUmAmGmCrArArGrUrUrArArArArUrArArGrGrCrUrArGrUrCrCrGrUrUrArUrCrAmAmCmUmUmGmAmAmAmAmAmGmUmGmGmCmAmCmCmGmAmGmUmCmGmGmUmGmCmU*mU*mU*mU | – | – | – | 7 | 7
20 | G000485: TTR sgRNA modified sequence, Human, SEQ ID No. 92; guide sequence of CR003336 (nucleic acid) guide: mC*mC*mU*rCrCrUrCrUrGrCrCrUrUrGrCrUrGrGrArCrGrUrUrUrUrArGrAmGmCmUmAmGmAmAmAmUmAmGmCrArArGrUrUrArArArArUrArArGrGrCrUrArGrUrCrCrGrUrUrArUrCrAmAmCmUmUmGmAmAmAmAmAmGmUmGmGmCmAmCmCmGmAmGmUmCmGmGmUmGmCmU*mU*mU*mU | – | – | – | 22 | 22
21 | G000487: TTR sgRNA modified sequence, Human, SEQ ID No. 94; guide sequence of CR003357 (nucleic acid) guide: mU*mU*mC*rUrUrUrGrGrCrArArCrUrUrArCrCrCrArGrGrUrUrUrUrArGrAmGmCmUmAmGmAmAmAmUmAmGmCrArArGrUrUrArArArArUrArArGrGrCrUrArGrUrCrCrGrUrUrArUrCrAmAmCmUmUmGmAmAmAmAmAmGmUmGmGmCmAmCmCmGmAmGmUmCmGmGmUmGmCmU*mU*mU*mU | – | – | – | 14 | 14
22 | G000490: TTR sgRNA modified sequence, Human, SEQ ID No. 97; guide sequence of CR003366 (nucleic acid) guide: mA*mA*mA*rUrArGrArCrArCrCrArArArUrCrUrUrArCrGrUrUrUrUrArGrAmGmCmUmAmGmAmAmAmUmAmGmCrArArGrUrUrArArArArUrArArGrGrCrUrArGrUrCrCrGrUrUrArUrCrAmAmCmUmUmGmAmAmAmAmAmGmUmGmGmCmAmCmCmGmAmGmUmCmGmGmUmGmCmU*mU*mU*mU | – | – | – | 12 | 12
23 | G000491: TTR sgRNA modified sequence, Human, SEQ ID No. 98; guide sequence of CR003338 (nucleic acid) guide: mA*mU*mA*rCrCrArGrUrCrCrArGrCrArArGrGrCrArGrGrUrUrUrUrArGrAmGmCmUmAmGmAmAmAmUmAmGmCrArArGrUrUrArArArArUrArArGrGrCrUrArGrUrCrCrGrUrUrArUrCrAmAmCmUmUmGmAmAmAmAmAmGmUmGmGmCmAmCmCmGmAmGmUmCmGmGmUmGmCmU*mU*mU*mU | – | – | – | 28 | 28
